Measured values: PMC12379375

Molecular target: recombinant CgDM9CP-6 (DM9 domain containing protein 6 of Crassostrea gigas), His tag (Crassostrea gigas)
Assay: BLI

recombinant Cg14-3-3ε (14-3-3 epsilon of Crassostrea gigas), GST tag (natural protein)
Kd: 3.81 µM
